Data published in patent WO2019006280A1 (dated 2019).

Molecular target: T1, cell-surface CD33 on the CD33-positive AML cell line MV4-11 (UniProt P20138 18-364)
T1 construct: whole, on cells; Endogenous CD33 of the MV4-11 cell line; also called cell-surface expressed CD33; CD33-postive MV4-11 cells
Assay: flow cytometry on MV4-11 cells, binder at 10 ug/ml, PE anti-flag

T1 sequence (P20138 18-364 limits assumed): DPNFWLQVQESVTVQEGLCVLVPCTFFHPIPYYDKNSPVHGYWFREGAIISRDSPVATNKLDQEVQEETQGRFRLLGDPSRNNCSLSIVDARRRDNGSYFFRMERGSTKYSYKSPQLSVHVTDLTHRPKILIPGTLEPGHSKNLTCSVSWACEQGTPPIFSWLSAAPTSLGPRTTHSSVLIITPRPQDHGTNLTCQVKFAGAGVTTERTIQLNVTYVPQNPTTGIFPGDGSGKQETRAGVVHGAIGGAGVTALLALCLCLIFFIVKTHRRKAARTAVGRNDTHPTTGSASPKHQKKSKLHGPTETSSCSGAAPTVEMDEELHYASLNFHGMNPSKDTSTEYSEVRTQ

B1: ml033-2 VH domain antibody (VHH)
VHH: EVQLVESGGGLVQPGGSLRLSCAASGFTFSSYGMSWVRQAPRKGLEWIGEINHSGSTNYNPSLKSRVTISRDNSKNTLYLQMNSLRAEDTATYYCARPLNYYYYYMDVWGKGTTVTVSS
notes: also called single domain antibody ml 033-2; m1033-2; not shown: His and Flag tags
B1: binds.
